{
  "source": "paper PMC9037272",
  "assay_in_all_cases": "FRET or BRET; FRET efficiency by flow cytometry in co-transfected HEK-293T cells 24 h post-transfection; donor mCerulean fusion, acceptor mEYFP fusion; Cer alone as negative control",
  "key": {"[1]": {"target": "EYFP-Tsn (Drosophila melanogaster)"}, "[2]": {"target": "EYFP-Hsp26 (Drosophila melanogaster) (UniProt P02517)", "sequence (P02517 whole entry)": "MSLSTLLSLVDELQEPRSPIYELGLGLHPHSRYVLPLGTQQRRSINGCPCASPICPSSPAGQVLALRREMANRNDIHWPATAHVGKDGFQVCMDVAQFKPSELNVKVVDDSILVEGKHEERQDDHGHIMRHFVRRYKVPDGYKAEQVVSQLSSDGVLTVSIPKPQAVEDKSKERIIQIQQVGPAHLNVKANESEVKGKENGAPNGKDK"}, "[3]": {"target": "EYFP-Pen (Drosophila melanogaster) (UniProt P52295)", "sequence (P52295 whole entry)": "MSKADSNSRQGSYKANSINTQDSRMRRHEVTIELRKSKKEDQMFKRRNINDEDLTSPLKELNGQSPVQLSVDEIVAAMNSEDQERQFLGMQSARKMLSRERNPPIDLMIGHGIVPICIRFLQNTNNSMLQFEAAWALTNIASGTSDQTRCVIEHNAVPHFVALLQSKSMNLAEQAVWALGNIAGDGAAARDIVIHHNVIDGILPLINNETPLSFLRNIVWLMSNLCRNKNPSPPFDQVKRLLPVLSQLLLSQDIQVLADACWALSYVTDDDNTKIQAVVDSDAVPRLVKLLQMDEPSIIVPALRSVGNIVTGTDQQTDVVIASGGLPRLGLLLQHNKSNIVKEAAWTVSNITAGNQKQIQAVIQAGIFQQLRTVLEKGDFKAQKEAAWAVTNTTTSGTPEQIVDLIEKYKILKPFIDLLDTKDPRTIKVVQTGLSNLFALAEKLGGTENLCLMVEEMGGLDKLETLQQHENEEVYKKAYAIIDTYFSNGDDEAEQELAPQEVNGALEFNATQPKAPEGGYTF"}},
  "data": [
    {"substance": "Cer-NtFT4 (mCerulean fusion of NtFT4) (natural protein)", "values": [
      {"measurement": "FRET efficiency", "setting": "[1]", "result": 3.8, "unit": "%"},
      {"measurement": "FRET efficiency", "setting": "[2]", "result": 13.8, "unit": "%"},
      {"measurement": "FRET efficiency", "setting": "[3]", "result": 7.9, "unit": "%"}
    ]}
  ]
}
